Publication PMC9482650, “Quantitative fragmentomics allow affinity mapping of interactomes” (Nature Communications, 2022)
Values belong to the binder of their own block, whether it stands above or below them.

How the values were obtained:
Test in all cases: holdup assay
Set-up in all cases: key: below the threshold = too weak to quantify, mostly under pKd 3.1 to 4
Conditions in all cases: plain residues with an end cap or a label only (N-terminal biotin on a linker: ado-ado)
[1] = biological target: NHERF4_2, Q86UT5
[2] = biological target: GRIP2_6, Q9C0E4
[3] = biological target: T1, LRRC7, Q96NW7
T1 sequence (Q96NW7 1440-1537, limits assumed, looked up): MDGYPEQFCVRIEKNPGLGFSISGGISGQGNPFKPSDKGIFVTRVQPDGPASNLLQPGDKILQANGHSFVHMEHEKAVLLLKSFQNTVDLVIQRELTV

[4] = biological target: T2, SYNJ2BP, P57105
T2 sequence (P57105 8-110, limits assumed, looked up): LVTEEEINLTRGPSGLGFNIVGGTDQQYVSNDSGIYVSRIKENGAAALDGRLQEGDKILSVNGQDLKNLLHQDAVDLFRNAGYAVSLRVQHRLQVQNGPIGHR

[5] = biological target: T3, RHPN1, Q8TCX5
T3 sequence (Q8TCX5 508-602, limits assumed, looked up): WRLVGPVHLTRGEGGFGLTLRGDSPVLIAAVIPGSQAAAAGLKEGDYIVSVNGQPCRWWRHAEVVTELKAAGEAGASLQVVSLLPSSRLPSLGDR

[6] = biological target: T4, CARD11, Q9BXL7
T4 sequence (Q9BXL7 662-765, limits assumed, looked up): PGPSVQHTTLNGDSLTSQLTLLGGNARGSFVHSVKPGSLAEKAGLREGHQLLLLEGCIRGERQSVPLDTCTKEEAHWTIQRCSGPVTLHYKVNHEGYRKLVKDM

[7] = biological target: MAGI2_2, Q86UL8
[8] = biological target: TJP1_3, Q07157
[9] = biological target: T5, ARHGEF11, O15085
T5 sequence (O15085 42-136, limits assumed, looked up): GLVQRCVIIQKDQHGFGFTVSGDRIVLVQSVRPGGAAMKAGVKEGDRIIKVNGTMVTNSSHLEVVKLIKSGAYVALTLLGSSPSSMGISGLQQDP

[10] = biological target: T6, MPP7, Q5T2T1
T6 sequence (Q5T2T1 134-230, limits assumed, looked up): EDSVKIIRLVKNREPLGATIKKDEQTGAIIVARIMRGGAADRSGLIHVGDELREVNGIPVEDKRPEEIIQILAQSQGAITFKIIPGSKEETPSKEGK

[11] = biological target: SNX27, Q96L92
[12] = biological target: GRIP2_5, Q9C0E4
[13] = biological target: FRMPD2_3, Q68DX3
[14] = biological target: Inadl_1, Q8NI35
[15] = biological target: T7, DLG3_3, Q92796
T7 sequence (Q92796 374-475, limits assumed, looked up): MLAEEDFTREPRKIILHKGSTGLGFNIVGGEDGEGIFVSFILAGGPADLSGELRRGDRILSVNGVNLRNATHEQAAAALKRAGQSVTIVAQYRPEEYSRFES

[16] = biological target: T8, DFNB31_1, Q9P202
T8 sequence (Q9P202 135-233, limits assumed, looked up): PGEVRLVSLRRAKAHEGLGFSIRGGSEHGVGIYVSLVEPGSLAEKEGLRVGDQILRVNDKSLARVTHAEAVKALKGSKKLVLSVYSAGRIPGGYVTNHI

[17] = biological target: T9, RADIL, Q96JH8
T9 sequence (Q96JH8 971-1071, limits assumed, looked up): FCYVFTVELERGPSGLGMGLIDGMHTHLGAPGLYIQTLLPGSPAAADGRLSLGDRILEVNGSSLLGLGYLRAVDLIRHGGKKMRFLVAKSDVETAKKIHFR

[18] = biological target: ARHGEF12, Q9NZN5-2
[19] = biological target: T10, MPDZ_5, O75970
T10 sequence (O75970 695-796, limits assumed, looked up): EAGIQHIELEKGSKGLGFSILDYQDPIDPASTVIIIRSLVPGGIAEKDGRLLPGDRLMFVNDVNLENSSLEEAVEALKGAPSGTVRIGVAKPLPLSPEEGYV

[20] = biological target: T11, SIPA1L2, Q9P2F8
T11 sequence (Q9P2F8 945-1036, limits assumed, looked up): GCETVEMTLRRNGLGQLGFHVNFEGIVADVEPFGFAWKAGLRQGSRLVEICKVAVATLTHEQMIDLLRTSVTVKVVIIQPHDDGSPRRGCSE

[21] = biological target: Inadl_6, Q8NI35
[22] = biological target: HTRA1, Q92743
[23] = biological target: T12, DLG3_2, Q92796
T12 sequence (Q92796 221-321, limits assumed, looked up): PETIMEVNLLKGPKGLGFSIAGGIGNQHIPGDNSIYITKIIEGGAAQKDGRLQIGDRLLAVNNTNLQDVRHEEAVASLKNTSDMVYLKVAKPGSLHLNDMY

[24] = biological target: T13, GRIP1_3, Q9Y3R0
T13 sequence (Q9Y3R0 247-346, limits assumed, looked up): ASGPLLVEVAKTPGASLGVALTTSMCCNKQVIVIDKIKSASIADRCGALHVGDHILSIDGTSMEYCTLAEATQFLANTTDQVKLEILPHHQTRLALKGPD

Chain of Inadl_1, Q8NI35 (Q8NI35 113-229): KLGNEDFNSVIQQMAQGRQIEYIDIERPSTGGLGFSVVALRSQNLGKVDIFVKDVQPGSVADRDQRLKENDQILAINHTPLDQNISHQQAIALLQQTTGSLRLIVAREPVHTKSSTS
Chain of Inadl_6, Q8NI35 (Q8NI35 1058-1167): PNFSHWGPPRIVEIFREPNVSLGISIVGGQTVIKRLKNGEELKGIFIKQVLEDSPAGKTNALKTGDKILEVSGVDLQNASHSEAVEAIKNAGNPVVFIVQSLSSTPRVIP
Chain of HTRA1, Q92743 (Q92743 360-477): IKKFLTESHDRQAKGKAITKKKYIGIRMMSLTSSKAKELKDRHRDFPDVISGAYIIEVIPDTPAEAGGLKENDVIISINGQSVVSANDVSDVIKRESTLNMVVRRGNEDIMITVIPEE
Chain of TJP1_3, Q07157 (Q07157 416-512): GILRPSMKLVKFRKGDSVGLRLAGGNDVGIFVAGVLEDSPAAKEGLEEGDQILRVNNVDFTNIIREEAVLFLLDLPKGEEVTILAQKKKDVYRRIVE
Chain of GRIP2_6, Q9C0E4 (Q9C0E4 648-740): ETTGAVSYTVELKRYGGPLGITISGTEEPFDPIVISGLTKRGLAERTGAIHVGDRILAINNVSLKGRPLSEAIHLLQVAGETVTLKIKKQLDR
Chain of FRMPD2_3, Q68DX3 (Q68DX3 1073-1166): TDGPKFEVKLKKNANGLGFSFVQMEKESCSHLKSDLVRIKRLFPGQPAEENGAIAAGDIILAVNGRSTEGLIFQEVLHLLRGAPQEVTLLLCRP
Chain of MAGI2_2, Q86UL8 (Q86UL8 410-522): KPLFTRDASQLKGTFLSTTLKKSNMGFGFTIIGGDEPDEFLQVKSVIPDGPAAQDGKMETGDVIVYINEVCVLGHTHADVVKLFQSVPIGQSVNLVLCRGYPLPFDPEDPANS
Chain of NHERF4_2, Q86UT5 (Q86UT5 220-308): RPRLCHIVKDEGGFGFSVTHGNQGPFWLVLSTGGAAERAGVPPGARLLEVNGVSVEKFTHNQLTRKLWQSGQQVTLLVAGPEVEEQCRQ
Chain of ARHGEF12, Q9NZN5-2 (Q9NZN5 other isoform, or with tags, fused parts or gaps): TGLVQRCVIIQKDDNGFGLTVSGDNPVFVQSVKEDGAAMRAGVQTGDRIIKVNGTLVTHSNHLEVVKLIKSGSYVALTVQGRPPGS
Chain of GRIP2_5, Q9C0E4 (Q9C0E4 544-642): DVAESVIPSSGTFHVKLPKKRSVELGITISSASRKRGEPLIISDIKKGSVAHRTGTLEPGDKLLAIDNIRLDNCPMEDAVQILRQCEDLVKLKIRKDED

- pKd [1]: below the threshold
- pKd [2]: below the threshold
- pKd [3]: below the threshold
- pKd [4]: below the threshold
- pKd [5]: below the threshold
- pKd [6]: below the threshold
- pKd [7]: below the threshold
- pKd [8]: below the threshold
- pKd [9]: below the threshold
- pKd [10]: below the threshold
- pKd [11]: below the threshold
- pKd [12]: below the threshold
- pKd [13]: below the threshold
- pKd [14]: below the threshold
- pKd [15]: below the threshold
- pKd [16]: below the threshold
- pKd [17]: below the threshold
- pKd [18]: below the threshold
- pKd [19]: below the threshold
- pKd [20]: below the threshold
- pKd [21]: below the threshold
- pKd [22]: below the threshold
- pKd [23]: 4.03
- pKd [24]: below the threshold
B2: MTNR1A, P48039 (peptide)
chain: NNNVVKVDSV

- pKd [1]: below the threshold
- pKd [2]: 3.64
- pKd [3]: 3.49
- pKd [4]: 3.52
- pKd [5]: 3.81
- pKd [6]: below the threshold
- pKd [7]: below the threshold
- pKd [8]: 3.62
- pKd [9]: 3.58
- pKd [10]: below the threshold
- pKd [11]: below the threshold
- pKd [12]: below the threshold
- pKd [13]: 3.49
- pKd [14]: below the threshold
- pKd [15]: below the threshold
- pKd [16]: below the threshold
- pKd [17]: below the threshold
- pKd [18]: 3.59
- pKd [19]: below the threshold
- pKd [20]: below the threshold
- pKd [21]: below the threshold
- pKd [22]: 4.25
- pKd [23]: 4.19
- pKd [24]: below the threshold
B4: GRIA2, P42262 (peptide)
chain: NVYGIESVKI

- pKd [1]: below the threshold
- pKd [2]: below the threshold
- pKd [3]: below the threshold
- pKd [4]: below the threshold
- pKd [5]: 3.73
- pKd [6]: below the threshold
- pKd [7]: below the threshold
- pKd [8]: below the threshold
- pKd [9]: 3.79
- pKd [10]: below the threshold
- pKd [11]: 5.06
- pKd [12]: below the threshold
- pKd [13]: below the threshold
- pKd [14]: below the threshold
- pKd [15]: below the threshold
- pKd [16]: below the threshold
- pKd [17]: below the threshold
- pKd [18]: 3.79
- pKd [19]: below the threshold
- pKd [20]: below the threshold
- pKd [21]: below the threshold
- pKd [22]: below the threshold
- pKd [23]: 4.08
- pKd [24]: below the threshold
B6: SLC1A1, P43005 (peptide)
chain: TISFTQTSQF

Further lines, the binder ahead of its results:

B1: RPS6KA3, P51812 (peptide)
chain: GIKKITSTAL
- pKd [1]: 3.55
- pKd [2]: 3.88
- pKd [3]: below the threshold
- pKd [4]: 4.52
- pKd [5]: 3.93
- pKd [6]: below the threshold
- pKd [7]: 4.16
- pKd [8]: below the threshold
- pKd [9]: 5.01
- pKd [10]: below the threshold
- pKd [11]: 4.93
- pKd [12]: 3.8
- pKd [13]: 3.5
- pKd [14]: below the threshold
- pKd [15]: 3.85
- pKd [16]: 4.39
- pKd [17]: below the threshold
- pKd [18]: 5.58
- pKd [19]: below the threshold
- pKd [20]: below the threshold
- pKd [21]: 3.57
- pKd [22]: 3.58
- pKd [23]: 3.73
- pKd [24]: below the threshold

B3: KIRREL2, Q6UWL6 (peptide)
chain: PSHPRLQTHV
- pKd [1]: below the threshold
- pKd [2]: below the threshold
- pKd [3]: below the threshold
- pKd [4]: 4.48
- pKd [5]: 4.11
- pKd [6]: below the threshold
- pKd [7]: 4.82
- pKd [8]: below the threshold
- pKd [9]: 4.06
- pKd [10]: below the threshold
- pKd [11]: below the threshold
- pKd [12]: below the threshold
- pKd [13]: below the threshold
- pKd [14]: below the threshold
- pKd [15]: 3.75
- pKd [16]: below the threshold
- pKd [17]: 3.73
- pKd [18]: 4.26
- pKd [19]: below the threshold
- pKd [20]: below the threshold
- pKd [21]: below the threshold
- pKd [22]: below the threshold
- pKd [23]: 4.6
- pKd [24]: below the threshold

B5: CIB2, O75838 (peptide)
chain: DFLSTFHIRI
- pKd [1]: below the threshold
- pKd [2]: 4.58
- pKd [3]: below the threshold
- pKd [4]: below the threshold
- pKd [5]: below the threshold
- pKd [6]: below the threshold
- pKd [7]: below the threshold
- pKd [8]: below the threshold
- pKd [9]: 3.64
- pKd [10]: 4.46
- pKd [11]: below the threshold
- pKd [12]: below the threshold
- pKd [13]: below the threshold
- pKd [14]: 3.91
- pKd [15]: below the threshold
- pKd [16]: 3.55
- pKd [17]: 4.19
- pKd [18]: below the threshold
- pKd [19]: below the threshold
- pKd [20]: below the threshold
- pKd [21]: below the threshold
- pKd [22]: 4.15
- pKd [23]: 3.97
- pKd [24]: below the threshold
